Laboratory results from patent US11427805B2, “Methods of producing human foregut endoderm cells expressing PDX1 from human definitive endoderm” (ViaCyte, Inc., priority 2005, dated 2022).

Key:
Type in all cases: cell-based, human
definitive endoderm = assay: Dorsal / ventral / PDX1-negative foregut endoderm differentiation from definitive endoderm (marker gene expression); conditions: for specification of definitive endoderm into foregut endoderm: FGF10 5-500 ng/ml, KAAD-cyclopamine 0.1-2 μM
Method: Definitive endoderm was produced from undifferentiated hESCs using a three or five day protocol in which activin A was provided to the culture medium at a concentration of 100 ng/ml each day. For both dorsal and ventral differentiation, the medium composition for the first five days was as follows: Day 1—RPMI+0% fetal bovine serum (FBS), Day 2—RPMI+0.2% PBS, Day 3—RPMI+2.0% FBS, Day 4—RPMI+2.0% FBS and Day 5—RPMI+2.0% FBS. For the ventral differentiation, definitive endoderm was produced for 3 days in activin A at 100 ng/ml and then exposed to BMP4 at 3 ng/ml and FGF10 at 50 ng/ml. […] For the dorsal differentiation procedure, definitive endoderm was produced for 5 days in activin A at 100 ng/ml and then exposed to retinoic acid (RA) at 2 μM and activin A at 25 ng/ml in CMRL medium containing B27 supplement (1:200).
Four separate conditions were used to treat hESCs that result in varying proportions of differentiation to definitive endoderm. All four conditions utilized RPMI supplemented with 0% FBS on the first day, 0.2% FBS on second day, and 2% FBS on days 3 and 4. The four conditions were as follows: (a) BMP4 at 100 ng/mL with SU5402 at 5 μM; (b) no exogenous growth factors; (c) activin A at 15 ng/mL; and (d) activin A at 100 ng/ml. […] All cultures were then incubated for 2 days with BMP4 at 3 ng/mL, FGF10 at 50 ng/ml and KAAD-cyclopamine at 0.5 μM in a base medium of 2% FBS in RPMI followed by 6 days with BMP4 at 3 ng/mL, FGF10 at 50 ng/ml and KAAD-cyclopamine at 0.5 μM in a base medium composed of CMRL with 1:200 dilution of B27 extract.
Definitive endoderm was produced by exposing undifferentiated hESCs to activin at 100 ng/mL in RPMI base medium supplemented with 0%, 0.2%, and 2% FBS on days 1 through 3, respectively. After 3 days of activin A treatment, the cultures were switched to a base medium composed of RPMI containing 2% FBS and maintained under one of the following conditions: (a) BMP4 at 3 ng/ml with FGF10 at 50 ng/ml and KAAD-cyclopamine at 0.5 μM; (b) FGF10 at 50 ng/ml and KAAD-cyclopamine at 0.5 μM; or (c-e) no exogenous factors. After two days, the base medium was changed to CMRL plus B27 supplement (1:200) and cells were maintained according to conditions (a-c) above. Alternatively, cells were maintained with no exogenous factors in RPMI with B27 supplement (1:200) (condition (d)) or RPMI with 2% FBS (condition (e)). The same factor treatment conditions were maintained for 8 more days of differentiation.
Human embryonic stem cells were differentiated for 7 days via a 2-step protocol to achieve PDX1 cells. The first step comprised 5 days differentiation in activin A (100 ng/ml) to robustly produce DE (D'Amour, K., et al., Nature Biotechnology 23, 1534-1541, (2005)). […]

PDX1 gene expression = assay: Q-PCR of PDX1 gene expression in hESC-derived definitive endoderm cultures; conditions: for PDX1 induction over RA alone: added to 1 μM RA on day four, ninety six hours (FIG. 37A)
Method: (§1) Human embryonic stem cells were cultured with or without activins for four days. On day four, 1 μM RA and 50 ng/ml FGF-10 were added to the cell culture. Forty-eight hours after the RA/FGF-10 addition, the expression of the PDX1 marker gene and other marker genes not specific to foregut endoderm were quantitated by Q-PCR.
(§2) As in the previous Example, hESCs were cultured with or without activins for four days. On day four, the cells were treated with one of the following: 1 μM RA alone; 1 μM RA in combination with either FGF-4 or FGF-10; or 1 μM RA in combination with both FGF-4 and FGF-10. The expression of PDX1, SOX7 and NFM were quantitated by Q-PCR ninety six hours after RA or RA/FGF.
Human embryonic stem cells were cultured with or without activins for four days. On day four, FGF-10 at 50 ng/ml was added to the culture in combination with RA at 0.04 μM, 0.2 μM or 1.0 μM. The expression of the PDX1 marker gene as well as other markers not specific for foregut endoderm were quantitated by Q-PCR.
Human embryonic stem cells were induced to differentiate to definitive endoderm by treatment of undifferentiated hES cells grown on mouse embryonic fibroblast feeders with high dose activin A (100-200 ng/ml in 0.5-2% FBS/DMEM/F12) for 4 days. The no activin A control received 0.5-2% FBS/DMEM/F12 with no added activin A. At four days, cultures received either no activin A in 2% FBS (none), and in 2% serum replacement (SR), or 50 ng/ml activin A together with 2 μM RA and 50 ng/ml FGF-10 in 2% FBS/DMEM/F12 (none, +FBS, +B27) and similarly in 2% Serum replacement (SR). B27 supplement, (Gibco/BRL), was added as a 1/50 dilution directly into 2% FBS/DMEM/F12 (+B27). Duplicate cell samples where taken for each point, and total RNA was isolated and subjected to Q-PCR as previously described.
Human embryonic stem cells were induced to differentiate to definitive endoderm by treatment of undifferentiated hESCs grown on mouse embryonic fibroblast feeders with high dose activin A (50 ng/ml) in low serum/RPMI for 6 days. The FBS dose was 0% on day one, 0.2% on day two and 2% on days 3-6. The negative control for definitive endoderm production (NF) received 2% FBS/RPMI with no added activin A. In order to induce PDX1 expression, each of the cultures received retinoic acid at 2 μM in 2% FBS/RPMI on day 6. The cultures treated with activin A on days one through five were provided with different dosing combinations of activin A and activin B or remained in activin A alone at 50 ng/ml. The no activin A control culture (NF) was provided neither activin A nor activin B. This RA/activin treatment was carried out for 3 days at which time PDX1 gene expression was measured by Q-PCR from duplicate cell samples.
The definitive endoderm cultures generated by 5 days of activin A treatment were then induced to differentiate to PDX1 expressing endoderm by the addition of RA in 2% FBS/RPMI containing activin A at 25 ng/ml for four days. The RA was 2 μM for the first two days of addition, 1 μM on the third day and 0.5 μM on the fourth day. This base medium for PDX1 induction was provided fresh (2A25R) or after conditioning for 24 hours by one of four different cell populations. Conditioned media (CM) were generated from either mouse embryonic fibroblasts (MEFCM) or from hESCs that were first differentiated for 5 days by one of three conditions; i) 3% FBS/RPMI (CM2), or ii) activin A (CM3) or iii) bone morphogenic protein 4 (BMP4) (CM4). […]

[1] = tested on: definitive endoderm cells; assay: Maintenance and expansion of definitive endoderm cells in culture; conditions: in the presence of activin
Description: Definitive endoderm cells produced by methods described herein have been maintained and expanded in culture in the presence of activin for greater than 50 days without appreciable differentiation. In such cases, SOX17, CXCR4, MIXL1, GATA4, HNF3β expression is maintained over the culture period. Additionally, TM, SPARC, OCT4, AFP, SOX7, ZIC1 and BRACH were not detected in these cultures. It is likely that such cells can be maintained and expanded in culture for substantially longer than 50 days without appreciable differentiation.

SOX17 gene expression = assay: Q-PCR of SOX17 gene expression in differentiating hESCs; conditions: added to activin A and activin B treated cultures (FIG. 23)
Method: In the following experiments, real-time quantitative RT-PCR (Q-PCR) was the primary assay used for screening the effects of various treatments on hESC differentiation. In particular, real-time measurements of gene expression were analyzed for multiple marker genes at multiple time points by Q-PCR. Marker genes characteristic of the desired as well as undesired cell types were evaluated to gain a better understanding of the overall dynamics of the cellular populations. The strength of Q-PCR analysis includes its extreme sensitivity and relative ease of developing the necessary markers, as the genome sequence is readily available. Furthermore, the extremely high sensitivity of Q-PCR permits detection of gene expression from a relatively small number of cells within a much larger population. In addition, the ability to detect very low levels of gene expression provides indications for “differentiation bias” within the population. The bias towards a particular differentiation pathway, prior to the overt differentiation of those cellular phenotypes, is unrecognizable using immunocytochemical techniques. […] Additionally, Q-PCR provides a mechanism by which to evaluate the success of a differentiation protocol in a quantitative format at semi-high throughput scales of analysis.
The approach taken here was to perform relative quantitation using SYBR Green chemistry on a Rotor Gene 3000 instrument (Corbett Research) and a two-step RT-PCR format. Such an approach allowed for the banking of cDNA samples for analysis of additional marker genes in the future, thus avoiding variability in the reverse transcription efficiency between samples.
To generate PCR template, total RNA was isolated using RNeasy (Qiagen) and quantitated using RiboGreen (Molecular Probes). Reverse transcription from 350-500 ng of total RNA was carried out using the iScript reverse transcriptase kit (BioRad), which contains a mix of oligo-dT and random primers. Each 20 μL reaction was subsequently diluted up to 100 μL total volume and 3 μL was used in each 10 μL Q-PCR reaction containing 400 nM forward and reverse primers and 5 μL 2×SYBR Green master mix (Qiagen). Two step cycling parameters were used employing a 5 second denature at 85-94° C. (specifically selected according to the melting temp of the amplicon for each primer set) followed by a 45 second anneal/extend at 60° C. Fluorescence data was collected during the last 15 seconds of each extension phase. A three point, 10-fold dilution series was used to generate the standard curve for each run and cycle thresholds (Ct's) were converted to quantitative values based on this standard curve. The quantitated values for each sample were normalized to housekeeping gene performance and then average and standard deviations were calculated for triplicate samples. At the conclusion of PCR cycling, a melt curve analysis was performed to ascertain the specificity of the reaction. A single specific product was indicated by a single peak at the Tm appropriate for that PCR amplicon.
A first step in establishing the Q-PCR methodology was validation of appropriate housekeeping genes (HGs) in the experimental system. […] We measured the expression levels of Cyclophilin G, hypoxanthine phosphoribosyltransferase 1 (HPRT), beta-2-microglobulin, hydroxymethylbiane synthase (HMBS), TATA-binding protein (TBP), and glucoronidase beta (GUS) in differentiating hESCs. […] We routinely used both Cyclophilin G and GUS to calculate a normalization factor for all samples. The use of multiple HGs simultaneously reduces the variability inherent to the normalization process and increases the reliability of the relative gene expression values.
We were the first to analyze and describe the effect of TGFβ family growth factors, such as Nodal/activin/BMP, for use in creating definitive endoderm cells from embryonic stem cells in in vitro cell cultures. […]

[2] = tested on: definitive endoderm cells; assay: Q-PCR of marker genes other than PDX1 in hESC-derived definitive endoderm cultures; conditions: FIG. 40B
Method: as §1, §2
Human embryonic stem cells were cultured with or without activins for four days. […] The expression of the PDX1 marker gene as well as other markers not specific for foregut endoderm were quantitated by Q-PCR.
Human embryonic stem cells were induced to differentiate to definitive endoderm by treatment of undifferentiated hESCs grown on mouse embryonic fibroblast feeders with high dose activin A (50 ng/ml) in low serum/RPMI for 6 days. […] The no activin A control culture (NF) was provided neither activin A nor activin B. This RA/activin treatment was carried out for 3 days at which time PDX1 gene expression was measured by Q-PCR from duplicate cell samples. […]

CC1=C2C[C@H]3[C@@H](CC=C4CC(=O)CC[C@@]43C)[C@@H]2CC[C@]12O[C@@H]1C[C@H](C)CN(CCNC(=O)CCCCCNC(=O)CCc3ccccc3)[C@H]1[C@H]2C [KAAD-cyclopamine, reference compound]
specification of definitive endoderm into foregut endoderm (definitive endoderm): further specified definitive endoderm cells into the foregut endoderm domain

CC1=C(/C=C/C(C)=C/C=C/C(C)=C/C(=O)O)C(C)(C)CCC1 [retinoic acid, reference compound]
increase in PDX1 gene expression (PDX1 gene expression; activin for four days followed by 1 μM RA, ninety six hours): 60 fold

activin
PDX1 expression in activin treated cell cultures relative to cultures that received no activin prior to RA application (PDX1 gene expression; four days with or without activins, then 1 μM RA and 50 ng/ml FGF-10 for 48 hours): 160 fold
time definitive endoderm cells were maintained and expanded in culture without appreciable differentiation [1]: greater than 50 days

B1: Wnt3a (protein, UniProt P56704 19-352, looked up)
Protein Wnt-3a: SYPIWWSLAVGPQYSSLGSQPILCASIPGLVPKQLRFCRNYVEIMPSVAEGIKIGIQECQHQFRGRRWNCTTVHDSLAIFGPVLDKATRESAFVHAIASAGVAFAVTRSCAEGTAAICGCSSRHQGSPGKGWKWGGCSEDIEFGGMVSREFADARENRPDARSAMNRHNNEAGRQAIASHMHLKCKCHGLSGSCEVKTCWWSQPDFRAIGDFLKDKYDSASEMVVEKHRESRGWVETLRPRYTYFKVPTERDLVYYEASPNFCEPNPETGSFGTRDRTCNVSSHGIDGCDLLCCGRGHNARAERRREKCRCVFHWCCYVSCQECTRVYDVHTCK
notes: Wnt family growth factor
SOX17 expression relative to activin A and activin B alone (SOX17 gene expression): increases SOX17 expression

B2: FGF-4 (protein, UniProt P08620 31-206, looked up)
Fibroblast growth factor 4: APTAPNGTLEAELERRWESLVALSLARLPVAAQPKEAAVQSGAGDYLLGIKRLRRLYCNVGIGFHLQALPDGRIGGAHADTRDSLLELSPVERGVVSIFGVASRFFVAMSSKGKLYGSPFFTDECTFKEILLPNNYNAYESYKYPGMFIALSKNGKTKKGNRVSPTMKVTHFLPRL
notes: fibroblast growth factor
PDX1 induction over RA alone (PDX1 gene expression): approximately 3 fold

B3: FGF-10 (protein, UniProt O15520 38-208, looked up)
Fibroblast growth factor 10: QALGQDMVSPEATNSSSSSFSSPSSAGRHVRSYNHLQGDVRWRKLFSFTKYFLKIEKNGKVSGTKKENCPYSILEITSVEIGVVAVKAINSNYYLAMNKKGKLYGSKEFNNDCKLKERIEENGYNTYASFNWQHNGRQMYVALNGKGAPRRGQKTRRKNTSAHFLPMVVHS
notes: fibroblast growth factor
PDX1 induction over RA alone (PDX1 gene expression): 60 fold
specification of definitive endoderm into foregut endoderm (definitive endoderm): beneficial

B4: BMP4 (protein, UniProt P12644 293-408, looked up)
Bone morphogenetic protein 4: SPKHHSQRARKKNKNCRRHSLYVDFSDVGWNDWIVAPPGYQAFYCHGDCPFPLADHLNSTNHAIVQTLVNSVNSSIPKACCVPTELSAISMLYLDEYDKVVLKNYQEMVVEGCGCR
notes: bone morphogenic protein 4, member of the TGFβ family
production of PDX1-positive ventral foregut endoderm (definitive endoderm; after 3 days activin 100 ng/mL, FGF10 50 ng/ml, KAAD-cyclopamine 0.5 μM, BMP4 3 ng/ml (FIGS. 52A, 52B)): not needed

B5: activin B (protein, UniProt P09529 293-407, looked up)
Inhibin beta B chain: GLECDGRTNLCCRQQFFIDFRLIGWNDWIIAPTGYYGNYCEGSCPAYLAGVPGSASSFHTAVVNQYRMRGLNPGTVNSCCIPTKLSTMSMLYFDDEYNIVKRDVPNMIVEECGCA
modifications: Inhibin beta B chain
increase in PDX1 expression over the culture that received only activin A at 50 ng/ml (PDX1 gene expression; activin B 10-50 ng/ml with 25 or 50 ng/ml activin A and 2 μM RA, 3 days (FIG. 40A)): at least 2 fold
HNF6 expression [2]: without increase in HNF6 expression
